Test: label from the status in PepcDB records

Sequence	protein production
MAGTTQGAKTLYDKLWDDHLVSQRDDGSCLIYIDRHLLHEVTSPQAFEGLQLAGRQPWRLNANIATPDHNVPTSKKEREQGIAGIEDDTSRIQVQTLDDNCKTFNIVEFGINDIRQGIVHVVGPEQGLTLPGMTVVCGDSHTATHGAFGCLAHGIGTSEVEHVLATQCLIQKKSKNMLIRVDGQLGKGVTPKDVVLAIIGKIGTAGGTGYAIEFGGQVFRDMSIEGRMTVCNMAIEAGARVGMVAVDDKTIEYVQSRHYAPKGEQWDQAVAYWNTLHSDDDAVFDEVVVLNGAEIEPQVSWGTSPEMVIPVSQAVPTLEQAKDDVQRNDWTRAYQYMGLTAGQALADIQLDRVFIGSCTNSRIEDIRAAAEVVKGRKVASSIKQAMIVPGSGLVKQQAEQEGLDQVFLEAGFEWREPGCSMCLAMNSDKLQPGEHCASTSNRNFEGRQGNGGRTHLVSPAMAAAAAIAGHFVDVRSF	failed
MTPDRKGDGGPSPLGDLKDALGGYLSAAGHGLVGRAGDRLGSLTDRLTESADGGGANGGTGGSEPGTGGSRSGSDGSKSGSGGSKSGSGGSKSGGSVKATHIMETVDIGVPLRTVYDQWTQLQDFSDFTKGVQSVSPHDETTSDWTAKIAFSTRSWKATVQEQIPDQRIVWTSEGAKGSTNGVVTFHELAPRLTRVVVVVEYYPAGFFEKTGNLWRAQGRRLRLDLKHFARHVTMTDAEEIEGWRGEIRDGEVVKSHEEALEEDEDAADEYEDDEEGEYDEEESDGEVPDGEEEPYADEDDGEYENDDAYEADDEDDERARPRR	failed
MMNDIAHNLAQVRDKISAAATRCGRSPEEITLVAVSKTKPASAIAEAIDAGQRQFSEHYVQEGVDKIRHFQELGVTGLEWNFAGPLQSNKSRLVAEHFDWCITIDRLRIATRLNDQRPAELPPLNVLIQINISDENSKSGIQLAELDELAAAVAELPRLRLRGLSAIPAPESEYVRQFEVARQMAVAFAGLKTRYPHIDTLALGQSDDMEAAIAAGSTMVAIGTAIFGARDYSKKGSLEHHHHHH	not failed
MAAPLAPWRVSAFNTAKQSENKMHDDTVARRFGFTGGLVPGVEVMAYMMHLPVARWGRDFLERGLIEARFVKPVYDGETATVTGEEQGEAITLAVESRGELCATGSASLPVRAPAVDLGAYPETAAATNRPPVGAQSFPEGHWFGTAPVNWGGAKLRDYLDEIRETDPIYRSDDLIHPGTLQRIMNRVLVDNVVLGPWIHVGSKMQLLAAARGDDVLTARAKVVANYDKKGHRFAEFDALIVANGDRPVAHCHHVAIFAPRQQAAA	failed
MERIALPRRTLGARRREVPVTPDTLLPLLAVLPPLAYGLLALFCARAWFGRQRPGPGHTPPVTILKPVKGMDAESFENFASFCRQEYGGPWQMLFACASADDPVIPVIRRLMAEFPDRDIDLVVDGTIHGPNYKVSNLINAFPRARHDILIVCDSDIRVTSDYLGEVTAPFADPAVGLVTSLYRSPGVRGAATALEAMGFTVEMVPNVMVAQRLEGLSFALGASMAVRRTALESIGGFPALTHYLADDYQLGNKIHRAGWRLELSDCFVESVMHRENLTTVLSRQLRWCRTMRASRPGGYLGSGITQPVPLACLALLVSGCSAAGWGAVILLYLTRALVAVTFSRRYLRDGIFPRWLWLLPLRDILAFATWALSFAGNRVRWRGNLFRLLPGGKIVEIG	failed
MAEATSALRKPVFTKVNELRPGTNGHSLNVKVVNTKMVMQRGGGRPMGPQSRQMRIAECLVGDETGIIIFTARNDQVDMMKEGSVVTLRNAKIDMYKGSMRLAVDRWGRVEVAEEPTDITVKDDNNLSLIEYELVSVET	failed
MVIETGVWIVLLGATVTAVATGLGALPFLFVRDIGDWWLGVFNAAAGGLMLAASHSLITEGSMLSTGRTLIGILVGLALILGANTFISRGDDHDVAELAGADARKALLILGIMTAHSFAEGVGVGVSYGGGDELGAFITAAIAVHNIPEGLAISLVLVPRGTPLWKAAGWSIFTSLPQPLMAVPAFLFVLVFEPFLPIGFGLAAGAMIWMVFAELIPDALEDVPGPTAGAAVTLAFAALFAFQHFVLHV	failed
EELEYKGMNTLQISNVDDLISFYQYADDRIPLISGHRGGRGKGYPENSMETFENTLSYTPATFEIDPRLTKDSVIVLFHDDTLERTSNGTGKVSDYTWEELQNFRLKDPEGNITNYRIPTLEEAIRWARGKTILILDKKDVPMERTAQLITDMQAEPYVMITVHDGASARFFYEKNPNFMFEAFVKTKEAVQDYEDNGIPWSHIMAYVGPKITPEVREVIDMLHERGVMCMISTAPSDDKLSTPESRAEAYRMIIRQGVDIIESDRPIEVAEAISSLIPVSSSKGKFFSTL	not failed
MTNAISNFTIYAFVALGGACGASLRFYISQLVLNWLGKGFPFATLMVNIIGSFTMGLLYQLIEHEILNVSVHRTLIGIGFLGAFTTFSTFSLDSLLLLQQGDVLKAAINILLNVSLCIAAAALGMFMVTTLTK	failed
MLARVLILLMFSLCAWPARAHALTIYTEEWPPITFQRNGIADGMAVEVVREIQGRIHDNSPIEVVPWARGYKDLLTTPGVMLFTVGRSEAREKQMTLLGPIAVSQTVLLARKGEAAKLLALGAGIYQRPVGAYRGSIFADAASAAGFVEVDLAPTPQLTAQKMLMGRYDMWVEGGFVVASVLKDIHQPANAVEVVRVLESLELYLAFSRGTSAEEVKRWQDGFAAIKKDGTFKRIYNKWLPRDAPPMEMKLLGVPPGTAR	failed
PEQIWAKQQKDGSWLMDALIPLNELKYKLGLTTIEGEESEGFQTLNGFLTWWLGRLPHAGELVDYEGWQFEVLNVKHHRIVQVKVSRET	failed
MDHGVVLLSDDQGLQWRQASSVPLSTPLTGVSFVDAKRGWAVGHWGAILITTDGGESWQVQRLATEEDRPLFAVHFFNARQGVAVGLWSLVLTTEDGGQTWSEQPLQAPPGAKRADLNLMGLFADSRGTLYATAEHGQVLHSEDQGKNWRYLDTGYEGTLWAGAVLADGRLLLGGQRGTLLQGSADGKGFHRVPTQSKGSVTCVAVAGSRVLAVGLDGLSVQSSDGGHSFQETQTADGLSLTAALFNAEGVPVLFSRRGVMPYQELEHHHHHH	failed
MAILEYIMLLFIGLIAGTVGSLVGLGGGIIIVPLLIGLHSLSPQLAVGTSMVTVVFTGLSSTLTYMKHKRVDYKSGLILFIGSGPGGIIGSWANKFLNQDTFSLYFGIFLIFVSILLMLRDKLKPLSLSNTSVIKRSFTDNDGNTVHYQFPPFLAIFIAFIVGFISGLFGIGGGALLVPAMMLLFAFPAHIAVATSMFIVFLSAIVSSATHISLGNVSWIYALILIPGAWIGGKIGAYINTKLSGNAVINLLRITLIILGTRLIIISLL	failed
MLGAPAHRAASAAPVIRRTKGPDMPTRLTALLSPSRPSRPSRDDAAGPVAGTARPARGAGWATALSLALVCFVTYAALSVRLHQRMLTTGYDLGIFEQAVRSYAHGHLPVAELKGPGFPLLGDHFSPVLALLAPLYRVWPAPVTLLVAQAALFAVAVIPLARWAEEVRGRRAALVVGLGYGASWGVAQAVGFDFHEVCFAVPLLALSLTAVGRGRARAAALWALPLLLVKEDLGLTVAVVGLLIARTGERDDRRRGGALVLAGVLGSFLEMLVVIPAFNPGGTFAYSSSVPGAGSATPGAGELLLHYTVGLVTPDTKAQTVLALLSVTGFLAVRSPLLWAALPTLLWRFASDNQAYWGTGYHYSAVLMPVLFAAFVDALTRPGPVRYALAASAAVTVLLLPQFPLWQLTQPATWHTDSRLASARRLMDRIPDGATVAASNRLVPQLTNRARVSVFGLGGSRPDAEWIIDDSAQPQGWPIAPDDDRRLLSEVRNNGRYRTVADQDGYVLLQRRP	failed
MSTLRATETHRASQSAWEVFLVFLRLGLTSFGGPVAHLGYFRDAFVTRRRWLTEHAYSDIVALCQFLPGPASSQVGMVVGLSRAGYPGALAAWVGFTLPSAIALILFALGLSHYGNLVPPSALHGLKVAAVAVVAQAVWGMARSLCPDAPRITLMILAAVAVTLIPSPWCQVGVMVVAGMVGAQRFRTAQVPPHEPLSIPVGHGAAIGFLLLFAGLLAGLPVVASLIPNHALALVDAFYRAGALVFGGGHVVLPLLQATVVPTGWVNNDTFLAGYGAAQAVPGPLFTFAAFLGAAGGPAPTGWIGGIVCLLAIFAPSFLLVFGALPFWERLRRHAGTRAALAGVNAAVVGLLLSALYQPVWTSAIHAPADFALALLALAALTVWRVPPWAVVTGCALAGWGMHVGGVA	failed
MRITSTANPRIKELARLLERKHRDSQRRFLIEGAREIERALQAGIELEQALVWEGGLNPEEQQVYAALGRVGRLALLEVSEAVLKKLSVRDNPAGLIALARMPERTLEEYRPSPDALILVAVGLEKPGNLGAVLRSADAAGAEAVLVAGGVDLYSPQVIRNSTGVVFSLRTLAASESEVLDWIKQHNLPLVATTPHAEALYWEANLRPPVAIAVGPEHEGLRAAWLEAAQTQVRIPMQGQADSLNVSVSAALLLYEALRQRLLRDRLTKTHSTL	not failed
MLIRPFLQYILGAVLLAYVLYPLQIRLETYVSPMLAALSLVTLAVTGFVAPVVVVLASIMESADRILREFGTDPVQLDILESRIKGLTGVEVDIAGELVSSGRDIGTIIVERSTQAFSTITFHLIGIALALFLIYYLLKDGDDLVDWLHRTVPLPVDVQRDFYAEIDDVMLGVLFGHVFVAIVQGIVAGVGLAATGVPNAMFWTAVMVVLAMVPLIGTIPVWGGAVIYLYATDEPLLAVGLFLYSVIIVGLTDDYLRPFAVDRYAKLNPAVILLGILGGAYAFGVMGLLFGPVVLGALKAALRVGLDTWSQIDDGNIG	failed
MEWLFWFDARDYEFARQVLQRGTAVLYAVAFLSTLNQFPALLGERGLLPVPAFLDMARRLARPTLFRWRYSDALLKAVCWTGIGVSVLLVMGLPQTGPPWLPMLAFLTLWFLYMSIVNVGQTFYGFGWEILLLEAGFTVAFLGSNQCPPPTTILVLIVWLVFRLEFGAGMIKIRGGREWRDMTAMFYHHETQPMPGPLSRQAHLLPRPLHKVEVVGNHFAQLVVPFFLFAPQPLASIAAGIIIATQLWLVGTGNFAWLNWVAIVLAFAAVSDPVAHAVFPFIPLEWHQSTETPVWWLAVVVLVTVLLLVFSYQPLLNLFSSRQLMNASFNRWRLVNAYGAFGTVTKQRIEIVVEGTLDDAPDAPDERWLEYGFKGKPGDVRRLPRQWAPYHLRLDWLMWFLPLRTVHEDWFYIFLDRLLEADRRTLGLLRVDPFDGERPRWVRARSYLYRFASRAEFRETGERWVRVLLYDAIPPVSLSPRRRRLP	failed
MTLTQLEIFALVAEMQGFTAAAARLGISQSGVSHAVRELERELGVELLQRRQGRVELTDIGRQLLPRASGMLGLAEAMRQEAADARGLRRGTLRIGSFGPTSSMRLLPALLARYRQQYPGIEVHIDEGPDEQVLQWLLERRVDIAFAVLPDPRFVCCPLVEDQMVAVLPAGHRLADRPRVTLAELCGEPFALSGAGSAELVMRLFQAARLQPNIRYRCGQLLSTLDTVARGDAVAIVAELSLPSRPHAEGYVGKPLQPAVRRQVGLALLDGDQASPAARAFLQIADRLRIEGGLAGLNARENGAA	not failed
MAEDYKLIDNEEKHRYEFQIDDKIAKIDYIKSNNGEIYLVHTEVPASLGGRGVGSQLAEKTLADIERQGLRLVPLCPFVAGYIHKHPEWKRIVMRGIHIK	failed
MLRGCGKLKKNLPCSVHTETPIVLKTTARFLLGLSLVLLSSSVATAQVVLPRTLELNAKEMEQNGFVVAQEALQLAQFQQFEDALVRAKLAVQLAPRAHEIWALLGGLYLTVNQPKDAVPALEQSLKLNDKNPGAYFNLGSAHFRLGRYDAAARAIEQGLALKPNATEEWFNLGNAYLKLGQKDRAIEQYRRSLRLDRRFWPAYTNIGLVLYEQGHIRQAVKNWEQAADIDPKASEPKLALATALLQLGNEARALQLAEEALRLDSRYGTVEFQRENLWGDRLVADTQILLAKPPLRALMSQLQPEQSALPQP	failed
QLGGDMKTIAIADRTGEYEQLFKENDEFRFVHAEKTAEEYRKMGADKSGIDAVLEIRQDLLEDPNAVAIYGYKQLPASVSNHISRILSDYLSDKKIASYNIPDIKQILADSKIELSVHTYKWSEDGTNERTSGELASGIS	not failed

From a protein production outcome set (Wang et al. 2014)
